Data from the DeepSol protein solubility set.

Assay: soluble on expression in E. coli; label from the status in PepcDB or PDB records

Row | Sequence | soluble on expression in E. coli
1 | MGSDKIHHHHHHMFKESPIIRRVSRQIMVGNVPVGGDAPITVQSMTNTLTTDVAATVAQIKALEAVGADIVRVSVPTMDAAEAFREIKKQVNVPLVADIHFDYRIALKVAEYGVDCLRINPGNIGNENRIRSVVECARDNNIPIRIGVNGGSLEKDIQEKYTEPTPEALLESAMRHVDILDRLNFNEFKVSVKASDVFLAVESYKLLAKQIDNPLHLGITEAGGLRSGSVKSSVGLGLLLAQGIGDTIRISLAADPIEEIKVGFDILKSLKLRSRGINLIACPSCSRQEFDVVSTVNALEQRIEDIMTPMDVSIIGCIVNGPGEAMVSDLGLTGSSKKSGYYLDGIRQKERFDNTDLVDQLEQRIRAKARSMSERLDEKNKIDILTKD | not soluble
2 | MGSDKIHHHHHHMYRVFVFDLDGTLLNDNLEISEKDRRNIEKLSRKCYVVFASGRMLVSTLNVEKKYFKRTFPTIAYNGAIVYLPEEGVILNEKIPPEVAKDIIEYIKPLNVHWQAYIDDVLYSEKDNEEIKSYARHSNVDYRVEPNLSELVSKMGTTKLLLIDTPERLDELKEILSERFKDVVKVFKSFPTYLEIVPKNVDKGKALRFLRERMNWKKEEIVVFGDNENDLFMFEEAGLRVAMENAIEKVKEASDIVTLTNNDSGVSYVLERISTDCLDE | not soluble
3 | MKLMAQLGKLLKEQKYDRQLRLWGDHGQEALESAHVCLINATATGTEILKNLVLPGIGSFTIIDGNQVSGEDAGNNFFLQRSSIGKNRAEAAMEFLQELNSDVSGSFVEESPENLLDNDPSFFCRFTVVVATQLPESTSLRLADVLWNSQIPLLICRTYGLVGYMRIIIKEHPVIESHPDNALEDLRLDKPFPELREHFQSYDLDHMEKKDHSHTPWIVIIAKYLAQWYSETNGRIPKTYKEKEDFRDLIRQGILKNENGAPEDEENFEEAIKNVNTALNTTQIPSSIEDIFNDDRCINITKQTPSFWILARALKEFVAKEGQGNLPVRGTIPDMIADSGKYIKLQNVYREKAKKDAAAVGNHVAKLLQSIGQAPESISEKELKLLCSNSAFLRVVRCRSLAEEYGLDTINKDEIISSMDNPDNEIVLYLMLRAVDRFHKQQGRYPGVSNYQVEEDIGKLKSCLTGFLQEYGLSVMVKDDYVHEFCRYGAAEPHTIAAFLGGAAAQEVIKIITKQFVIFNNTYIYSGMSQTSATFQL | soluble
4 | MQQTTQIQPSFTLKTREGGVASADERADEVVIGVGPAFDKHQHHTLIDMPHGAILKELIAGVEEEGLHARVVRILRTSDVSFMAWDAANLSGSGIGIGIQSKGTTVIHQRDLLPLSNLELFSQAPLLTLETYRQIGKNAARYARKESPSPVPVVNDQMVRPKFMAKAALFHIKETKHVVQDAEPVTLHIDLVRE | soluble
5 | MRLEVLCEDRLGLTRELLDILASKSIDLRGIEIDISGIIYLNCPDIDFDTFSELMAEIRRIPGVKDVRKIQFMPMERHNTELLSLVDNLPDPVFAIDLKGAVDMANMSALSLLGLHKQEVIGTQIGALLPSVRFSRWSEGVNARTRENLVIDGLDYILELMPVYIRDEAQNSTLASTLMTIRTSQHGTQIE | not soluble
6 | MNFPVSDLTSYQELIEQQGLKSQTNIISLDKIIVDIILSEKTGFSRSQQVWCLIRQRIVDGCASVVDIDYLDMRLMPQLNRSIAENSIYDYLENQLHLSISHAFKEITIDNTSEQDKILIDIGKDHHVVCIRSKVYLNNGNQLQFTESRHKLEKFKFVYYAKRHH | not soluble
7 | MGSDKIHHHHHHMLIIKRSVAIIAILFSPLSTASNLTSQLHNFFSAQLAGVSDEVRVSIRTAPNLLPPCEQPLLSMSNNSRLWGNVNVLARCGNDKRYLQVNVQATGNYVVAAMPIARGGKLEAGNVKLKRGRLDTLPPRTVLDINQLVDAISLRDLSPDQPIQLTQFRQAWRVKAGQRVNVIASGDGFSANAEGQALNNAAVAQNARVRMVSGQVVSGVVDADGNILINL | not soluble
8 | ERRQGIAGVKGNQLQLMTESDDVMQALIRDIQLARHNIEMVFYIWQPGGMADQVAESLMAAARRGIHCRLMLDSAGSVAFFRSPWPELMRNAGIEVVEALKVNLMRVFLRRMDLRQHRKMIMIDNYIAYTGSMNMVDPRYFKQDAGVGQWIDLMARMEGPIATAMGIIYSCDWEIETGKRILPPPPDVNIMPFEQASGHTIHTIASGPGFPEDLIHQA | not soluble
9 | MGSDKIHHHHHHGKPLRKVDLLADIRPDVEEEVCDSDTIVLPPPVKPIFVDTCKTGITCIEDYSDSTMRGMKHFYEALSKVKTMKRPVRIAYFGDSFIEADIFTADLREMLQQEFGGCGVGYVPVTSSISGYRPTVRHTFGGWSSHSSNDSVGFDKMQQDISGHYFFPREGAYVQLKGQSKYASRLDTCEVSTFYFLNKGFAAVRSKVNNAAEGELHEEVGTGGVQAVSVRGRIGQVRWSVEQADSVTFYGVAMDGRQGISLDNFSVRGSSGLHLRSIPLHTLCDFQRLRPYDLIVVQYGLNVATERGVKYDGYKKGMLSVIEHLKTAFPETSILLVSVGDREYKNENGDLRTMPGVKNLIRYQQSIAADSHIAFWNMYEAMGGQGSIVDMIGQKMANLDYTHINFKGGKHLAGILFETLMYGKEQYERRKAYEEE | not soluble
10 | MGSDKIHHHHHHMSRLLRSPQTGAGKLFSAASSENFSKQNLIDAVIKEARRKVMEAEFQKKFMQSWSRYFPGAELPIGFYYTDSAETKFMAKPPKRHRCIIGDLAKVRKGKPQCFDNNAIGCFGGKRYLGFESKLTPDFEYFLSCGIPGKIEGERYKKSPELVKEHLKHQQPLKAPGNYIIFKRWDQMENADIPSVVIFFAAPDVLSGLFTLANFDETHPHGVIAPFGAGCASIVDYPYKELNSPDPRSVLGMFDVSARPCVPSNVLTFAVPWPKFVRMVGNMDESFLITRSWNKVKTRIKKEHAKSNDK | not soluble
11 | TKEGMLHYKAGTSYLGKEHWKTCFVVLSNGILYQYPDRTDVIPLLSVNMGGEQCGGCRRANTTDRPHAFQVILSDRPCLELSAESEAEMAEWMQHLCQAVSKGVIPQGVAPS | soluble
12 | MKTQIIGVLGLGIFGQTLATELSSFGQDVIALDNNSTTIDFLADQVTKAAVGDITDIDFLRSAGIDTCDTVIIATGEHLESSALALLHCKKLGITNIIAKATNNNYEEVLYGMGANLVITPERSTAKDLASNILRCNISRIFHLEDDVALIELKIPNEWAGKSLHTLNLRQTYNVNVIGFRNEENGKLNTHFDPMNRLPNEGTILVVSDNRTLEKFDYLGYLKLEHHHHHH | soluble
13 | MGSDKIHHHHHHMETLISGKNLKAYYVLDLWGSKKVVKAVDNVSLDILPNEIYGIAGESGCGKSTLLKALLALLDPPLRLMDGELLYNIEGRPTNVTLLKSETIRKLRWSFISYIPQGSMHVLNPVKRVRDTFIEILSSHVKKQTKEFLDLAVQHLKDLGLPERVLNMFPHQLSGGMRQRVTIALATVLKPRVIFADEPTTALDVVAQRAVMQLIRKIQNDLKNTVVLVTHDMGVHAQITTRMAIMYAGKIVEEGPTLEIFKNPLHPYTRYLIQSLPAIGDKKLRSGIPGSPPSLVAPPPGCRFHPRCPHASQRCREEEPLLKEIKPGHKVACFLMEG | not soluble
14 | MLPVTYRLIPQSGVSTYRLNTADTPVFPDIPEHAPNPSRLRLAHDSLAINSEFRLEPECVVEYLISGAGGIDPDTEIDDDTYDECYDELSSVLQNAYTQSETFRRLMNYAYEKELHDVEQRWLLGAGEAFETTVAQEHFKLSEGRKVICLNLDDSDDSYTEHYESNEGRQLFDTKRSFIHEVVHALTHLQDKEENHPRGPVVEYTNIILKEMGHPSPPRMVYIFNK | not soluble
15 | MTEAKIVDISSKDIVLREAVVEGYIKLRKETIEKIKNKEVEKGDVITVAKTAGILAAKKTPELIPMCHPIPLEFVDVEIKIEEEGLRVISTVKAHYKTGVEMEALTATSVALLTIWDMVKKYEKDENGQYPYTEIKSIRVINKIKTYDDMK | soluble
16 | SLHNGGLMAGWHLDTKMAQDIVARTMRIIDTNINVMDARGRIIGSGDRERIGELHEGALLVLSQGRVVDIDDAVARHLHGVRQGINLPLRLEGEIVGVIGLTGEPENLRKYGELVCMTAEMMLEQSRLMHLLAQDSRLREELVMNLIQAEENTPALTEWAQRLGIDLNQPRVVAIVEVDSGQLGVDSAMAELQQLQNALTTPERNNLVAIVSLTEMVVLKPALNSFGRWDAEDHRKRVEQLITRMKEYGQLRFRVSLGNYFTGPGSIARSYRTAKTTMVVGKQRMPESRCYFYQDLMLPVLLDSLRGDWQANELARPLARLKTMDNNGLLRRTLAAWFRHNVQPLATSKALFIHRNTLEYRLNRISELTGLDLGNFDDRLLLYVALQLDEER | soluble
17 | MGSDKIHHHHHHMTNANGNLKKCPITISSYTLGTEVSFPKRVKVAAENGFDGIGLRAENYVDALAAGLTDEDMLRILDEHNMKVTEVEYITQWGTAEDRTAEQQKKEQTTFHMARLFGVKHINCGLLEKIPEEQIIVALGELCDRAEELIIGLEFMPYSGVADLQAAWRVAEACGRDNAQLICDTWHWARANQTAESIKNVPADRIVSIQLCDVHETPYKELREESLHDRLAPGEGYGDTVGFAKILKEHGVNPRVMGVEVISDSMVATGLEYAALKVYNATKKVLDEAWPEISPR | soluble
18 | MSINTANTPDGLGVLLYNGETIVIFAQGVVMTLGTSENENLEGRRTGTIYLTSHRIIFMPDPGDWLKSFEIPFNSMQDVNLNQPIFGANYLCGIASAVQGGQMRGEVKWRMTFNRGGCIEFGQSLLQAVERAVRMRPENAPPAYSPPIGDFYSAPPAYYQPSPDQGPNGFNPTTDSFPDQPNPSRVFMSSAPPPYPGIGPERGPHPTEELHVAGQFEAPPAYGSGETADGLRRRN | not soluble
19 | MRAEFVNPFLASLMNVLKTMASLELKPQKPRIKKDEIARGDVSGLIGMIGPTTRGSMSITFDESLALEIMQNMLGERPNGLNEEVTDMVGEITNMVTGGAKRILAESGFDFDMATPVVVSGRGHTIRHKCEGAIILMPFSSPWGNAFIEICFE | not soluble
20 | MGSDKIHHHHHHMKDDVSAPSRYRPSIFAVPFQRHGDGTAVELLSPSEQDALIAISRLVTVRRHTVLYPEGGDARFAYNIVSGVAETYQLLPNGDKRITAFLFPRDLMGLSENGAYVATAQSLTPLVAYRIPVEALAEILERDPRLDIGLLCKLCHELRRSQHHTITVSKNEAPARLASFLVWIQHAYPEEGRAEGEVMLPMSRHDIADYLGLSVESVSRGLHVLEAQDAVRRKGPRLVTVLDPAKLRRLAGQD | not soluble
21 | MQTYIETSRLILRDWKEEDIPAFARMNADPHVMEFFLHPLTPEESLAFYHRIQNEFQTCGFGLYAVERKEDHAFMGYTGLHQITFDVDFAPGIEIGWRLAHEYWGRGYAPEAATACLEYARKSLDIKELFSFTSLPNQRSERVMQKIGMERVREFGHPLVPAEHPLHRHVLYYIDLRKHSS | not soluble
22 | MGSDKIHHHHHHMNITNNRQYSWVGSREMCLDEISIKQYGEIVIGKYGGNISAGANKNEDGALVWSNGDWEFAAILDGHNSAESVDLVVNTIQKEYENIKEMMNESIDTVFRSIENHILTIFQSSSFKEKCQRIKGETACLLCVRKENYIWWLSIGDCLVYVFHDELHKLGQYALNQRHFYEWIGNVNTFDVPVPCYSSGIRELRTGNNRIVMVTDGVLEYGERRYETPLNLYNDMNRNNIKLEESVHHVLEHVHHQFGRDSATIISWDVENKGKATYPSDQPDKK | not soluble
23 | MQNETINLKQHLAAIKEYWQPEIINRHGFQFHLVKLLGDYGWHTHGYSDKVLFAVEGDMAVDFADGGSMTIREGEMAVVPKSVSHRPRSENGCSLVLIELSDPSEAV | soluble
